This note sets out measurements from patent US20170051058A1 (UNIVERSITAET DUISBURG ESSEN, published 2017).

In assay [1] the target is CEACAM1 on human CD8+ T cells from the blood of healthy donors (human) (UniProt P13688). The experiment in a line: flow cytometry on human PBMCs, gated on CD8+ T cells, anti-mouse IgG-APC. (Flow cytometry measures light scatter and fluorescence of single cells or particles in a stream.)
Assay [2] deals with T1, CEACAM1 (human, UniProt P13688 35-526, limits assumed).
T1 construct: also called entire CEACAM1; CD66a
T1 sequence: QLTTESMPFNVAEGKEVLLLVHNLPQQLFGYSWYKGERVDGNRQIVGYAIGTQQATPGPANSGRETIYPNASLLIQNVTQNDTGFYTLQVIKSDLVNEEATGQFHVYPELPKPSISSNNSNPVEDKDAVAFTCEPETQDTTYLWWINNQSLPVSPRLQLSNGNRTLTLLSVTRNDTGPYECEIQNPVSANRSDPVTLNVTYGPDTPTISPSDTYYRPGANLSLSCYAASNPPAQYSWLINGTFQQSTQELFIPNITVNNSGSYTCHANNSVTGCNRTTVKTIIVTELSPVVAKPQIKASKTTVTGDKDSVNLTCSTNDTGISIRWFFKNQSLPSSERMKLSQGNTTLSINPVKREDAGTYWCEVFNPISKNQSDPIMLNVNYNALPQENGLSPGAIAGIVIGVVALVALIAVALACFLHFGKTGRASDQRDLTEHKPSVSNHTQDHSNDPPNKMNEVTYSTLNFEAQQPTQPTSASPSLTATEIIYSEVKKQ
The assay can be described thus: sandwich ELISA, CEACAM1 from CHO transfectants captured by anti-CEA, detection with anti-mouse Ig-HRP. Here is the method: Sandwich ELISA was coated with 0.25 μg/100 microL/well of anti-CEA (Dako). ELISA was washed and remaining binding sites blocked. Subsequently, CEACAM1 or CEACAM1deltaN (therefore CEACAM1 without N-domain, CEACAM1dN) was added thereto. CEACAM1 and CEACAM1deltaN were obtained from CHO transfectants. The ELISA was then incubated with differing antibodies. After 4 hours of incubation, the ELISA was washed and incubated with anti-mouse Ig-HRP. After 1 hour, the substrate TMB was added and the absorption measured at 450 nm.

Assay [3] concerns the target CEACAM1 without N-domain (human) (UniProt P13688). The assay can be described thus: sandwich ELISA, CEACAM1dN from CHO transfectants captured by anti-CEA, detection with anti-mouse Ig-HRP. (In general: An ELISA detects its analyte on a solid surface through an enzyme-linked reagent.)
In assay [4] the target is T1, CEACAM1. The experiment in a line: method not stated.

In assay [1], isotype control (antibody) registered a mean fluorescence intensity of 436 MFI.

B1: anti-human CEACAM1 antibody (clone 6G5J) (antibody, V domains shown)
VH: KPGETVKISCKTSGYIFRNYGMKWVKQAPGKGLKWMGWINTYTGEPTYADDFKGRFAFSLETSASTAYLQINNLKNEDMATYFCARRGMITTSNYALDNWGQGTSVTVSS
VL: SSLSASLGDRVTISCRASQDISNYLNWYQQKPDGTIKLLIYYTSKLHSGVPSRFSGSGSGTDYSLTISNLDQEDIATYFCQQGNTLPWTFGGGTKLEIK
notes: Mouse monoclonal antibody from a hybridoma; also called antibody 6G5J
For the molecule B1, the “absorption at 450 nm (mean)” value in the assay with CEACAM1 [2] came out at 1.09 absorption at 450 nm. The molecule also displayed an absorption at 450 nm (mean) (absorption at 450 nm) in assay [3] of 0.066. Moreover, the Kd (commonly the equilibrium constant for the complex coming apart) with CEACAM1 [4] came out at 23 nM.

B2: anti-human CEACAM1 antibody (clone B3-17) (antibody, V domains shown)
VH: GPELVKPGTSVKMSCKASGYTFTTYVMHWVQQKPGQGLDWIGFFNPYNDGTKYNEKFKGKATLTSDKSSSTAYMELSSLTSEDSAVYYCARWAYDGSYAYWGQGTTLTVSS
VL: SYLSVFLGGRVTITCKASDHINNWLAWYQQKPGNAPRLLISGATSLETGVPSRFSGSGSGKDYTLSIISLQTEDVATYYCQQYWRTPFTFGSGTKLEIK
notes: Mouse monoclonal antibody from a hybridoma; also called antibody B3-17; mAB, B3-17
As for B2, in the assay with CEACAM1 [2], the “absorption at 450 nm (mean)” value was 0.62 absorption at 450 nm. Also, in assay [3], the absorption at 450 nm (mean) (absorption at 450 nm) was found to be 0.91. For the same molecule, in the assay with CEACAM1 [4], binding was put at a Kd of 10 nM.

B3: anti-human CEACAM1 antibody (clone 18-20) (antibody, V domains shown)
VH: KPGETVKISCKASGYTFTVYGMNWVKQAPGKDLKWMGWINTYTGEPTYADDFKGRFAFSLETSASTAYLQINNLKNEDMATYFCARKAFYRYDGGMDYWGQGTSVTVSS
VL: SSLSASLGGKVTITCKASQDINKFLAWYQHKPGKGPRLLIHYTSTLQPGIPSRFSGSGSGRDYSFSISNLEPEDIATYYCLQYDNLYTFGGGTKLEIK
notes: Mouse monoclonal antibody from a hybridoma; also called antibody 18-20
For the molecule B3, the “absorption at 450 nm (mean)” value in the assay with CEACAM1 [2] turned out to be 1.3 absorption at 450 nm. The molecule further had an absorption at 450 nm (mean) (absorption at 450 nm) in assay [3] of 0.053. Also, the dissociation constant (Kd) in the assay with CEACAM1 [4] is 26 nM.
